Test results published in patent publication US20240148892A1 (DUALITY BIOLOGICS SUZHOU, published 2024).

Assays:
[1] = molecular target: T1, human full-length B7H3 expressed on MCF-7 cells (human, UniProt Q5ZPR3 29-534); experiment: cell-based or functional assay
T1 sequence: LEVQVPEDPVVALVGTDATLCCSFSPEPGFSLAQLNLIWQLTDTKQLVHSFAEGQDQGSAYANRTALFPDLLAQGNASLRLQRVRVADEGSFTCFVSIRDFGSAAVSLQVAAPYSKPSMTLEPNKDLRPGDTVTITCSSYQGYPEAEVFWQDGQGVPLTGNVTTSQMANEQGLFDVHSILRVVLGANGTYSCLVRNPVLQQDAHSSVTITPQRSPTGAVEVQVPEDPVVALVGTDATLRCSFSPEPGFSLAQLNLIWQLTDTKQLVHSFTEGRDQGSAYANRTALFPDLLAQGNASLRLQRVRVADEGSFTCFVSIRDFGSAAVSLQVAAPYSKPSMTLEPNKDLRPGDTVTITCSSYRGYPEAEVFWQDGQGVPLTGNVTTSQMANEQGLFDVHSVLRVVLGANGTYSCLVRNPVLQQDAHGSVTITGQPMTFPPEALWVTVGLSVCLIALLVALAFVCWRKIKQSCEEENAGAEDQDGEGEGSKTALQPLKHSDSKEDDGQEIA

Human PD-L1, His Tag = molecular target: T2, Human PD-L1, His Tag (human, UniProt Q9NZQ7 19-238); experiment: ELISA, B7 family protein immobilized on plate, serially diluted antibody
T2 construct: Bought protein; also called human PD-L1 protein; ACRO PD1-H5229; not shown: His tag
T2 sequence (Q9NZQ7 19-238 limits assumed): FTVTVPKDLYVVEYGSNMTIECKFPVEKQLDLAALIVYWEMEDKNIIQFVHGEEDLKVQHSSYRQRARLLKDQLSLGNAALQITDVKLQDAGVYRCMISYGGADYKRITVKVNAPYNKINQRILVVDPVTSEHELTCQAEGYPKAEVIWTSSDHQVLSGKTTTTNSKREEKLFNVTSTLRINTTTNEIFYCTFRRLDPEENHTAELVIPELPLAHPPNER
Procedure: Human PD-Ll protein (see the table above), human B7-H2 protein, human B7-H3 protein, human B7-H4 protein, human B7-H5 protein, human B7-H6 protein, human B7-1 protein, human B7-2 protein, human PD-L2 protein, human B7-H7 protein, and human BTNL2 protein were separately immobilized on 96-well plates by incubation at 4° C. overnight. The 96-well plates were then blocked by incubation with 1% BSA in PBS at 37° C. for 1 h. After blocking, the 96-well plates were washed 3 times with PBST (PBS containing 0.05% Tween 20). […] After incubation, the 96-well plates were washed 3 times with PBST, incubated with a secondary antibody (see the table above) in binding buffer at 37° C. for 1 h, and then washed again. TMB was added for color development, and the reaction was stopped by 1 M H₂SO₄.

B1: W301088-1.145.16-z3-p1-uIgG1KV320 (antibody, V domains shown)
VH: QVQLQESGPGLVKPSQTLSLTCTVTDYSITGDYAWNWIRQHPGKGLEWIGYISYSGSTSYNPSLQSRVTISRDTSKNQFSLKLSSVTAADTAVYFCARSLGRRWYFVVWGQGTTVTVSS
VL: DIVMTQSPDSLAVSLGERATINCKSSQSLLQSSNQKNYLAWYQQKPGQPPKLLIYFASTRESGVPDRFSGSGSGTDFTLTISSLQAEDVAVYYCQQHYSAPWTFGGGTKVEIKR
notes: Humanized, PTM-removed (VL N027dQ) human IgG1 LALA kappa antibody; also called WBP301088; W301088-z3-p1
With B1 as the binder, how does the “Antibody internalization EC50, MCF-7 cells (value in running text, differs from Table 16)” value [1] read?
The value was 0.51 nM.

Does B1 bind (Human PD-L1, His Tag)?
Result: no binding
